A short description of this data set: soluble on expression in E. coli; label from the status in PepcDB or PDB records.
Turning to “MAEDEPDAKSPKTGGRAPPGGAEAGEPTTLLQRLRGTISKAVQNKVEGILQDVQKFSDNDKLYLYLQLPSGPTTGDKSSEPSTLSNEEYMYAYRWIRNHLEEHTDTCLPKQSVYDAYRKYCESLACCRPLSTANFGKIIREIFPDIKARRLGGRGQSKYCYSGIRRKTLVSMPPLPGLDLKGSESPEMGPEVTPAPRDELVEAACALTCDWAERILKRSFSSIVEVARFLLQQHLISARSAHAHVLKAMGLAEEDEHAPRERSSKPKNGLENPEGGAHKKPERLAQPPKDLEARTGAGPLARGERKKSVVESSAPGANNLQVNALVARLPLLLPRAPRSLIPPIPVSPPILAPRLSSGALKVATLPLSSRAGAPPAAVPIINMILPTVPALPGPGPGPGRAPPGGLTQPRGTENREVGIGGDQGPHDKGVKRTAEVPVSEASGQAPPAKAAKQDIEDTASDAKRKRGRPRKKSGGSGERNSTPLKSAAAMESAQSSRLPWETWGSGGEGNSAGGAERPGPMGEAEKGAVLAQGQGDGTVSKGGRGPGSQHTKEAEDKIPLVPSKVSVIKGSRSQKEAFPLAKGEVDTAPQGNKDLKEHVLQSSLSQEHKDPKATPP”, the “soluble on expression in E. coli” value is recorded as “soluble”. Then “MAHHHHHHMSSKKQDASAELLSELRAVIVSGGSMGTLDEQKVRSVVEKTNESYACIQSIATNPYADLTQPYYVSSVNYYRAKCLRDKRCLLTYLLWRQKQVAKAWWSVRDNLLEGSLSAAEAKYLSDYQGIMVEYMTSFDVPLDLRAYLWRPPSVRQLEVRGRCHYEFRSSVSGKTIIINIGDQLFLSFEEAEPLIQQGIVELVGH”, with “not soluble”; and “MTNPGDGAAGAADRATLDHWRPRLAAIAAAAGQDDAAHDLGHLRRVWDAARAMLQAHPEADALVVLAASYLHDLVNLPKNHPERHLASRQAAAAARERLARAGFPAARLDAVAHAIEAHSFSAGIAPRTIEARIVQDADRLDALGPVGLVRMFHVGGSLGRALAHPSDPLAAQRALDDSRYTLDHIEAKLARLPHGMQTEAGRRLGEQRLAWLRDFRAAFSAQWGGGQLRLEHHHHHH”, with “not soluble”; and “MGSDKIHHHHHHMDQEQLDALANAALEELARRNYGDFFYLSHGKQWDLLRHQKYITDRLQKIIDGEQKYYIIEIPPQHGKSTVITETFPAYYLMRHPDSLVMVVSYSKELFQKFGRKNREKFRLFSDQLFGLQISSETSSVSEWGVEGHLGSLYSTSILGGATGRGARLLIIDDPIKNRAEAESKTIRDKIYNEWQDTFYSRLTADASVIVIMTRWHEDDLAGRLLKEQTLPWEEIKIPAIAEDDDLLGRKPGEALAPEIGKDEEWAAKTKAVTGSRGWAALYQQRPTPAGGNIFKRSWIKFYVPTLSKKIELSLGDDVVILPRLFDRQAQSWDCTFKDTETSDYVSGQVWGKKRADFYLLDRHHERMGIVETMKAIDAMAAKWPKARGIYIEDKANGTAVIEMLKNELSGIIAVNPEGGKEVRANAVAPIWEAGNVYLPHPLVCPWVDDFINELVAFPNAEHDDDVDSMTQILNKMIGKVSLRERYLDN”, with “not soluble”. As for “MGEYYHATVNGVVEYGAFVDLSEHVSGLIHESTYSGDPDLAVDDDVIVHLSAVRDNGDLSFEFVDPEEYRTEQRSLEHHHHHH”, the “soluble on expression in E. coli” value is listed as “not soluble”. With “MGDILMHYVRKAHEHEVNEVVKYPHTITNTELEEILVSGEECTVLDVREAAEFAFGHIPSATSMPLGELESLVLDKTKQIYVVCRTGNRSDVACQMLKEKGYTNVKNVIPGMIEWQGNIENLEHHHHHH” the entry was “not soluble”; with “MTGDYALCGWRVRIDRPSTFAPPWIGEDRPVDITIRHAAFSPPSPPLLFESPLVGVFAEGAIVLRINPGLGFLIEGGARITVDATAQTGEAEIATFLFGQCLGFLALQRRQPALRAASVVRDGRAVVLAGAAGVGKSTLAAALMAKGWGLLADEVTLIDPRTLLIPPAFGRIKLWKDSATHLGLEAAALPAVRPGWNKGHAPYGGHLAPAPVPLAAIILIEQAYTAKTAGIDKIAPREALAALNDQLHGGTFAGALAARPACFDLLTTLVGGVPVFQLSRPWHGMTLAPLVELLTAEMARLEHHHHHH”, “not soluble”; with “MMTQVTESAVRSALSRVEDPEIGKPITELGMVKSVSIDGSDVQVEVYLTIAACPMKTTIVTNTEAALKDIDGVGQVHVTTDVMSDEQRRALRVSLRGETSEPVIPFAQPGSTTRVYAVASGKGGVGKSSMTVNLAAALAKRGLSVGILDADIYGHSVPGMLGSDQRPHQVDDMIMPPQAHGVKMISIAHFTEGNAPVVWRGPMLHRAIQQFLTDVFWGDLDILLLDLPPGTGDIAITVAQLIPNAELLIVTTPQAAAAEVAERAGTISVQTNQKVAGVIENMSAMVLPDGTTMDVFGTGGGQKIADRLTAVTGEEVKVIGSVPLDPNLRIGGDVGNPIAISEPHSPTAAAINEIAEHLAHRKVSLVGKTLGLGVKLEHHHHHH”, “soluble”.

As for “MAHHHHHHMGTLEAQTQGPGSMDFRIGQGYDVHQLVPGRPLIIGGVTIPYERGLLGHSDADVLLHAITDALFGAAALGDIGRHFSDTDPRFKGADSRALLRECASRVAQAGFAIRNVDSTIIAQAPKLAPHIDAMRANIAADLDLPLDRVNVKAKTNEKLGYLGRGEGIEAQAAALVVREAAA”, the “soluble on expression in E. coli” value is recorded as “soluble”. For “MSSPHSLRQQYQSLIASGSIEADPAQARAVQAFTLLNETLDGYKPPKKQGFFGRLFGGGDAGQAPPQGLYIHGEVGRGKTMLMDLFFDASPIALKRRSHFHEFMAETHDRINGFRQAIKRGDIPDADVMELTAASILDEAWLLCFDEFHVTDIADAMILGRLFTKLFELGTVVVATSNVAPDDLYKGGLNRSLFMPFIGQVKRHMRVIRLDARTDYRLEKFAGMKVWLAPDDAEATATIDRAWHRITGTTKGEPRDISIKGRILHVPQADHHVARFSFADLCQKPLGASDYLRLAHEYHTLMIDHVPVMDYADRNAAKRFIALIDTLYDNSVKLMASAAAEPARLYRATEGFEALEFNRTVSRLTEMGSESYLALPHGRRDSTATGETTGLVETMAGDPLEHHHHHH”, the “soluble on expression in E. coli” value is listed as “not soluble”. With “MGSDKIHHHHHHMMGGKTLVLLDERLISLSMTDNRGFDADQVTLSVDDADGLLQLPPRGADLSVSIGWKGEALVYKGVFIVDEVAHSGPPDTLEVTARSADFRDEFNVKREISWHDLTVERVVSAIAHRYKLKPVISAQLMDLEIDHADQTQESDMSFLTRMAEMLGAIATVKNGCLLFILPGGGVSASGKPLPAAEITRSSGDRHSFRIADRDAYTGVRAYWLDLNFGKKKKVSVKRRKAKPKKEKSSSREGDYMEGEDGNVYVLRKTYQNETAAKRAAAAKWQQLQRGAAQFSITLARGRADLYPEVHVSVSGFKADIDNQEWIISRVEHVIDGSGFTSRLELEAKIADWIAESD” the entry was “not soluble”.

Turning to “MADGMGNLIGWEKTGLVVGKQWITAKDDKVSDVCNANGEMGVIGLYEPFSHGALTIPGHPNCRCEVVSVSGGELGEFAEKKELRKAAMQYARDNFIGKSYVNKNSGHELKVTWQGVKHAASKANQAELSIMTKLDDLLRYAKYEGSYSDRKGHPNIIAAHKYRAVAKVGNESLNIGVIVREFPDDHKHYDHFILKDE”, the “soluble on expression in E. coli” value was “not soluble”. With “MGCLSYMVLSGDEALVVDPLRFIDVYEQVAQQEGVTITHIVDSHLHADHLSGGKALAERTGAAYYLMKSEGAVFDFEPLEQHETIDFENVHLEVLAVKTPGHTPGSVSFFVNGKWLFSGDTIFVGGLGRPDLGGKVAEWAEDLYHTVYEKVAAMADDVIVLPAHYANLDEEINAEGYVGDTLGRIRARNEMMQNKAKDEFIDLVIQGLEHHHHHH” the entry was “not soluble”. With “MRTVDFTPLYRNAIGFDRLLNMMENSAAKNAQGGYPPYNIEQKEDNQYRITMAVAGFGDEEIDITQQENTLIVRGERKPEESKNYIYQGIAERDFERKFQLADYVKVTGATMEHGLLHIDLEREIPEAMQPRKIAINGKHLLENK” the entry was “not soluble”; with “MSDEAWKQTLICESINDKIGYWEYLAVTDKRRRSRNKAQSSGAENYKKVLEEQQRIYTAGGMGYGPEMYQVISNPMRNQKRVNNIEGSKIFAAMNSGAPRIALDIQYVEEMNKRDSGELGNQMQYTISENFSAKSPFVLDFVNSPSKEFLEQWLSKSVGYYTGNYINQTILPDFSTKGIKEFYGKSANTIYISSNARDVLDGPLTADVIGICVTMGRKREALSAARRANIRAYRLPIHRYVKWKSGPQYLPFPNIMNVLREVYMNGGDWSRALHNNISKRHLVNADDDEQKKMQMLRRRAREEERRELTEAIMSATKG”, “not soluble”.
